{
  "source": "patent US20090035321A1",
  "about": "“Intercellular adhesion molecules and their binding ligands” (Boehringer Ingelheim Pharmaceuticals, Inc., published 2009)",
  "assay_in_all_cases": "flow, COS cells",
  "key": {"[1]": {"target": "ICAM-1 R13/K (human, UniProt P05362)"}, "[2]": {"target": "ICAM-1 Q1/E (human, UniProt P05362)"}, "[3]": {"target": "ICAM-1 A178/G (human, UniProt P05362)"}, "[4]": {"target": "ICAM-1 G15/SA (human, UniProt P05362)"}, "[5]": {"target": "ICAM-1 S61/I (human, UniProt P05362)"}, "[6]": {"target": "ICAM-1 N48/H (human, UniProt P05362)"}, "[7]": {"target": "ICAM-1 E111GGA/KAGS (human, UniProt P05362)"}, "[8]": {"target": "ICAM-1 K50V/EL (human, UniProt P05362)"}, "[9]": {"target": "ICAM-1 N156/E (human, UniProt P05362)"}, "[10]": {"target": "ICAM-1 R166PQ/EPA (human, UniProt P05362)"}, "[11]": {"target": "ICAM-1 A115N/SV (printed A155N/SV at paragraph 410) (human) (UniProt P05362)"}, "[12]": {"target": "ICAM-1 D60S/KL (human, UniProt P05362)"}, "[13]": {"target": "ICAM-1 G101K/AN (human, UniProt P05362)"}},
  "data": [
    {"substance": "monoclonal antibody CL203", "values": [
      {"measurement": "SLFI % WT", "setting": "[1]", "value": 189, "unit": "% WT"},
      {"measurement": "SLFI % WT", "setting": "[2]", "value": 135, "unit": "% WT"},
      {"measurement": "SLFI % WT", "setting": "[3]", "value": 304, "unit": "% WT"},
      {"measurement": "SLFI % WT", "setting": "[4]", "value": 172, "unit": "% WT"},
      {"measurement": "SLFI % WT", "setting": "[5]", "value": 140, "unit": "% WT"},
      {"measurement": "SLFI % WT", "setting": "[6]", "value": 164, "unit": "% WT"},
      {"measurement": "SLFI % WT", "setting": "[7]", "value": 122, "unit": "% WT"},
      {"measurement": "SLFI % WT", "setting": "[8]", "value": 103, "unit": "% WT"},
      {"measurement": "SLFI % WT", "setting": "[9]", "value": 182, "unit": "% WT"},
      {"measurement": "SLFI % WT", "setting": "[10]", "value": 94, "unit": "% WT"},
      {"measurement": "SLFI % WT", "setting": "[11]", "value": 60, "unit": "% WT"},
      {"measurement": "SLFI % WT", "setting": "[12]", "value": 105, "unit": "% WT"},
      {"measurement": "SLFI % WT", "setting": "[13]", "value": 142, "unit": "% WT"}
    ]}
  ]
}
